The record followed here is paper doi:10.1101/2023.10.24.563883.

The assay deals with LPHN2-ICL1-Nluc (UniProt O95490). The assay is described as follows: FRET or BRET.
Chain of LPHN2-ICL1-Nluc (O95490 26-1459): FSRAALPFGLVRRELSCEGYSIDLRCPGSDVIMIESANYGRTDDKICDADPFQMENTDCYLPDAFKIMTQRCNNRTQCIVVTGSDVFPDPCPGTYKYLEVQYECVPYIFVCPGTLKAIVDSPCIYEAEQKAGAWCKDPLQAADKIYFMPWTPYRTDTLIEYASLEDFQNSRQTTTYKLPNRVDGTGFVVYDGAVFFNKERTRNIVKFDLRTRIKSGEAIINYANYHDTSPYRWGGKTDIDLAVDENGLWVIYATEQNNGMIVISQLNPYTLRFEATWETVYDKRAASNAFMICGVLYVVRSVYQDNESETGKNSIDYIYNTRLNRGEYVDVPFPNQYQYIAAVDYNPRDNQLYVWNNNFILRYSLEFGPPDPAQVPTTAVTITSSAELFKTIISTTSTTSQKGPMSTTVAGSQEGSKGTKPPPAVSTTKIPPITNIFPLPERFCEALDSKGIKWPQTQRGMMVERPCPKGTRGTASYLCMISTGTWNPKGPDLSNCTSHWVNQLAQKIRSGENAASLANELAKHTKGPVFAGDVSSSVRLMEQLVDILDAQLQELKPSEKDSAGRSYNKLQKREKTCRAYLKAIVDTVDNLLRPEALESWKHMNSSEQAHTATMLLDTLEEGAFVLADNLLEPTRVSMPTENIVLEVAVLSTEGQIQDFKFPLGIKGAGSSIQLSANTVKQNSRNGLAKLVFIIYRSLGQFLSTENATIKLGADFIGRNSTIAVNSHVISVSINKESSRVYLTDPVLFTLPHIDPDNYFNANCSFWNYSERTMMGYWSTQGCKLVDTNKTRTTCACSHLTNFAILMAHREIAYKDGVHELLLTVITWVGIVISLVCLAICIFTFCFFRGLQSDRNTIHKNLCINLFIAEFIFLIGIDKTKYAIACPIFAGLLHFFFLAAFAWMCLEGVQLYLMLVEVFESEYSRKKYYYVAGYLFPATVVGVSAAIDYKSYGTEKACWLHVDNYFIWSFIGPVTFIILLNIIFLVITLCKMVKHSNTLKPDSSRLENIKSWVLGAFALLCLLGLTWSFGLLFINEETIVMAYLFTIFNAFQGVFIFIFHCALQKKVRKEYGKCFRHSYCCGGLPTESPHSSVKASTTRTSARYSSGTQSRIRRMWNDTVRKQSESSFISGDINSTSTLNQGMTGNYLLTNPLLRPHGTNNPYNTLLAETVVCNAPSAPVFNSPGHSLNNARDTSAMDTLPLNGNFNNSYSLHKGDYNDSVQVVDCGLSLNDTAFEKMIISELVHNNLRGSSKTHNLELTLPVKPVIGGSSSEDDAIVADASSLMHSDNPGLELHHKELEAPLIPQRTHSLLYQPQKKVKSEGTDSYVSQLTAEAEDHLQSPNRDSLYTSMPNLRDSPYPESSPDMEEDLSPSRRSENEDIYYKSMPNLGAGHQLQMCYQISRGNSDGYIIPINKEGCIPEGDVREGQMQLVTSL

“TMC1-C-YFP (from UniProt Q8TDI8 1-760) (natural protein)” came in with an EC50 of force for the increase of the BRET signal of 5.2 pN and a stoichiometry N (TMC1 per LPHN2) of 2.
